The target in this experiment is 30 kDa ragweed complete pollen extract disulfide protein allergen (Ambrosia trifida (giant ragweed)). The experiment can be described thus: Concanavalin A affinity chromatography.

Substance “Concanavalin A (from UniProt P02866 30-281)” registered a percent retained on affinity column above 90%.

The record behind these values is US20030170763A1.
